Changes are numbered by the printed parent chain.

Sequences and labels used below:
B1: PDL1-27 dAb (VHH)
VHH: QVQLQESGGGSVQAGGSLRLSCAASGNISSRRCMAWFRQAPGKERERVANILTTTGNTYLADSVKGRFTISQNNAKSTVYLQMNSLKPEDTAMYYCAADSFHDPTCTVVASSGAFQYWGQGTQVTVSS
notes: camel heavy chain single domain antibody expressed in E. coli, purified on nickel; also called antibody No. 27; not shown: His tag from expression vector PET32b
B2: PDL1-10 dAb (VHH)
VHH: QVQLQESGGGSVQAGGSLRLSCAASGNIVSSYCMGWFRQAPGKERVGVAAIDSDGTTKYADSMKGRFTISKDNAKNTLDLQMNSLKPEDTAMYYCVARLNCPGPVDWVPMFPYRGQGTQVTVSS
notes: camel heavy chain single domain antibody expressed in E. coli, purified on nickel; also called antibody No. 10; not shown: His tag from expression vector PET32b
B3: PDL1-94 dAb (VHH)
VHH: B2 VHH with G26L, V29F, E44Q, A50T, K58R, A60V, M63V, V96A
notes: camel heavy chain single domain antibody expressed in E. coli, purified on nickel; also called antibody No. 94; not shown: His tag from expression vector PET32b
B4: PDL1-69 dAb (VHH)
VHH: QVQLQESGGGSVQAGGSLRLSCAVQRNISSSYCMAWFRQAPGKQRERVDKILTTPGNTYLADSVKGRFTISQNNAKSTVYLQMNSLKPEDTAMYYCAADSFQKPTCTVVASWPAFQYWGQGTQVTVSS
notes: camel heavy chain single domain antibody expressed in E. coli, purified on nickel; also called antibody No. 69; not shown: His tag from expression vector PET32b
B5: PDL1-81 dAb (VHH)
VHH: QVQLQESGGGSVQAGGSLRLSCAASGNIIRVRCMAWFRQAPGKERERGPNILTTTISTYLADSVKGRFTISQNNAKSTVYLQMNSLKPEDTAMYYCAADSFGYPTCPGPASSGAFQYWGQGTQVTVSS
notes: camel heavy chain single domain antibody expressed in E. coli, purified on nickel; also called antibody No. 81; not shown: His tag from expression vector PET32b
B6: PDL1-38 dAb (VHH)
VHH: QVQLQESGGGSVQAGGSLRLSCAVSGFISSRRCMGWFRQAPGKERVGVANITGTGNTYLADSVKGRFTISQNNAKSTVYLQMNSLKPEDTAMYYCAADSFPTCTVVASSGAFQYWGQGTQVTVSS
notes: camel heavy chain single domain antibody expressed in E. coli, purified on nickel; also called antibody No. 38; not shown: His tag from expression vector PET32b
B7: PDL1-87 dAb (VHH)
VHH: QVQLQESGGGSVQAGGSLKLSCAASGYIFSSCGMGWYRQAPGKERELVSTISSDGTTSYADSVKGRFTISQDNAKNTLYLQMNSLKTEDTAVYYCVADCPPIPEFTSCSGGYCLSGDYWGQGTQVTVSS
notes: camel heavy chain single domain antibody expressed in E. coli, purified on nickel; also called antibody No. 87; not shown: His tag from expression vector PET32b

In one test the target is T1, PDL1-Fc fusion protein (human).
T1 construct: expressed in CHO or HEK293 cells; also called Human PDL1-Fc; recombinant human PDL1-Fc
Kind of test: ELISA, dAb coated 0.5 ug/well, dilution series of PDL1-Fc, anti-human IgG-Fc-HRP. A general note: An ELISA detects its analyte on a solid surface through an enzyme-linked reagent.
As a reminder, the EC50 is the concentration at which the effect is half-maximal. High values mean weaker potency, low ones greater potency. In the case of B1, the EC50 was about 0.005 µg/mL.

Another test deals with T1, PDL1-Fc fusion protein. Kind of test: ELISA, ratio of OD on PDL1-Fc to OD on Fc protein.
Regarding B2, the “OD (PDL1/Fc)” value worked out at 8.63 ratio.

With B3, the “OD (PDL1/Fc)” value was 10.3 ratio.

On to B4, for which the “OD (PDL1/Fc)” value came out at 7.1 ratio.

As for B1, the “OD (PDL1/Fc)” value was determined as 32.8 ratio.

Regarding B5, the “OD (PDL1/Fc)” value turned out to be 31.5 ratio.

As to B6, the “OD (PDL1/Fc)” value stood at 30.5 ratio.

B7: the “OD (PDL1/Fc)” value is 18 ratio.

A further test deals with T1, PDL1-Fc fusion protein. In words: ELISA, PDL1-Fc coated, 100 ng dAb per well, anti-His detection.
For the molecule B2, the “OD (against PDL1)” value was 0.854 OD (405 nm).

Consider B3, for which the “OD (against PDL1)” value was 0.875 OD (405 nm).

In the case of B4, the “OD (against PDL1)” value is 1.17 OD (405 nm).

B1: the “OD (against PDL1)” value is 2.62 OD (405 nm).

As for B5, the “OD (against PDL1)” value is 2.68 OD (405 nm).

On to B6, for which the “OD (against PDL1)” value was 1.98 OD (405 nm).

Consider B7, for which the “OD (against PDL1)” value was 2.24 OD (405 nm).

Another test concerns the target T1, PDL1-Fc fusion protein. In words: competitive ELISA, PDL1-Fc coated, dilution series of antibody with 100 ug/mL PD1-Fc-Biotin (competitor).
As a reminder, the IC50 is the point on the concentration scale where inhibition reaches its midpoint. Low values mean greater potency in that assay, high ones weaker potency in that assay. Consider B1, for which the IC50 was about 0.917 µg/mL.

The next test addresses T2, Fc protein.
T2 construct: counter-screen antigen for the Fc moiety of PDL1-Fc
Kind of test: ELISA, Fc protein coated, 100 ng dAb per well.
As to B2, the “OD (against Fc)” value is 0.099 OD (405 nm).

In the case of B3, the “OD (against Fc)” value was 0.085 OD (405 nm).

On to B4, for which the “OD (against Fc)” value was 0.165 OD (405 nm).

Turning to B1, the “OD (against Fc)” value was 0.08 OD (405 nm).

Turning to B5, the “OD (against Fc)” value is 0.085 OD (405 nm).

As to B6, the “OD (against Fc)” value is 0.065 OD (405 nm).

With B7, the “OD (against Fc)” value is 0.124 OD (405 nm).

The target of another test is T1, PDL1-Fc fusion protein. In words: competitive ELISA, PDL1-Fc coated, 100 ng dAb and 10 ug PD1-Fc-Biotin (competitor); remaining PD1-Fc-Biotin signal.
Turning to B2, the OD was 0.126 OD (405 nm).

On to B1, for which the OD is 0.161 OD (405 nm).

As to B5, the OD was 0.429 OD (405 nm).

In the case of B7, the OD is 0.897 OD (405 nm).

A further test has as its target T1, PDL1-Fc fusion protein. Kind of test: ELISA: plate coated with the single domain antibody 0.5 µg/well, dilution series of PDL1-Fc, anti-human IgG-Fc-HRP, OD405, four-parameter fit; unit from the axis 'Log Conc(ng/mL)', the concentration of PDL1-Fc.
In the case of B1, the EC50 came out at 0.00568 µg/mL.

The target of a further test is T1, PDL1-Fc fusion protein. Kind of test: ELISA, ratio of OD on PDL1-Fc to OD of blank control.
With B2, the “OD (PDL1/blank)” value worked out at 15.8 ratio.

With B3, the “OD (PDL1/blank)” value worked out at 16.2 ratio.

B4: the “OD (PDL1/blank)” value was 21.7 ratio.

For the molecule B1, the “OD (PDL1/blank)” value stood at 48.5 ratio.

In the case of B5, the “OD (PDL1/blank)” value was found to be 49.6 ratio.

Regarding B6, the “OD (PDL1/blank)” value was found to be 36.7 ratio.

For the molecule B7, the “OD (PDL1/blank)” value was found to be 41.4 ratio.

The target of the next test is T1, PDL1-Fc fusion protein. Kind of test: competitive ELISA: PDL1-Fc coated 0.5 µg/well, dilution series of the antibody with PD1-Fc-Biotin 100 µg/mL (blocked ligand), SA-HRP, OD405; the sheet labels it EC50, paragraph 198 calls it IC50; unit from the axis.
Molecule B1 had a 50% inhibitory concentration (IC50) of 0.917 µg/mL.

Another test has as its target T3, human PDL1 protein on the cell membrane (human, UniProt Q9NZQ7 19-290).
T3 construct: whole, on cells; also used here for Raji-PDL1 cells and for native PDL1 on lung cancer tissue sections; also called Raji-PDL1
In words: flow cytometry competition: 293-PDL1 cells, single domain antibody plus hPD-1-Fc-biotin 0.3 µg (blocked ligand), SA-PE; right panel. (In general: A flow cytometer gives signals particle by particle.)
Turning to B2, the binding result is on record as “binds”.

The target of the next test is T1, PDL1-Fc fusion protein. In words: SPR, BIAcore X100, PDL1-Fc on CM5 chip, antibody as analyte, 25 C. Background: SPR reads the build-up and loss of mass on a sensor chip optically.
In general, Kd refers to the concentration at which binding is half-saturated. Higher therefore signals a looser complex. As for B1, the Kd worked out at 0.771 nM.

B5 showed a Kd of 0.548 nM.

Another test concerns the target T4, Mouse PDL1-Fc protein (mouse).
T4 construct: expressed in HEK293 cells; also called mouse PDL1-Fc fusion protein; mice PDL1-Fc
In words: ELISA, mouse PDL1-Fc coated, anti-His detection.
B2: the binding result is “no binding (tested: 100 ng per well)”.
